Data from paper PMC5452337.

Key:
Assay in all cases: co-IP; lysates of CHO GABABR1b/R2 cells transiently expressing KCC2-GFP constructs or GFP, CHAPS buffer; anti-GFP as the precipitating antibody; blots probed for GABABR1 (quantified against FL-KCC2 = 100%) or transferrin receptor
[1] = target: KCC2 transmembrane domain (TMD) fused to GFP (rat)
[2] = target: KCC2 deletion mutant NTD + TMD fused to GFP (rat)
[3] = target: KCC2 deletion mutant TMD + CTD fused to GFP (rat)
Chain of KCC2 deletion mutant TMD + CTD fused to GFP (rat) (Q63633 whole entry, stated change not applied, the tested form may be a part): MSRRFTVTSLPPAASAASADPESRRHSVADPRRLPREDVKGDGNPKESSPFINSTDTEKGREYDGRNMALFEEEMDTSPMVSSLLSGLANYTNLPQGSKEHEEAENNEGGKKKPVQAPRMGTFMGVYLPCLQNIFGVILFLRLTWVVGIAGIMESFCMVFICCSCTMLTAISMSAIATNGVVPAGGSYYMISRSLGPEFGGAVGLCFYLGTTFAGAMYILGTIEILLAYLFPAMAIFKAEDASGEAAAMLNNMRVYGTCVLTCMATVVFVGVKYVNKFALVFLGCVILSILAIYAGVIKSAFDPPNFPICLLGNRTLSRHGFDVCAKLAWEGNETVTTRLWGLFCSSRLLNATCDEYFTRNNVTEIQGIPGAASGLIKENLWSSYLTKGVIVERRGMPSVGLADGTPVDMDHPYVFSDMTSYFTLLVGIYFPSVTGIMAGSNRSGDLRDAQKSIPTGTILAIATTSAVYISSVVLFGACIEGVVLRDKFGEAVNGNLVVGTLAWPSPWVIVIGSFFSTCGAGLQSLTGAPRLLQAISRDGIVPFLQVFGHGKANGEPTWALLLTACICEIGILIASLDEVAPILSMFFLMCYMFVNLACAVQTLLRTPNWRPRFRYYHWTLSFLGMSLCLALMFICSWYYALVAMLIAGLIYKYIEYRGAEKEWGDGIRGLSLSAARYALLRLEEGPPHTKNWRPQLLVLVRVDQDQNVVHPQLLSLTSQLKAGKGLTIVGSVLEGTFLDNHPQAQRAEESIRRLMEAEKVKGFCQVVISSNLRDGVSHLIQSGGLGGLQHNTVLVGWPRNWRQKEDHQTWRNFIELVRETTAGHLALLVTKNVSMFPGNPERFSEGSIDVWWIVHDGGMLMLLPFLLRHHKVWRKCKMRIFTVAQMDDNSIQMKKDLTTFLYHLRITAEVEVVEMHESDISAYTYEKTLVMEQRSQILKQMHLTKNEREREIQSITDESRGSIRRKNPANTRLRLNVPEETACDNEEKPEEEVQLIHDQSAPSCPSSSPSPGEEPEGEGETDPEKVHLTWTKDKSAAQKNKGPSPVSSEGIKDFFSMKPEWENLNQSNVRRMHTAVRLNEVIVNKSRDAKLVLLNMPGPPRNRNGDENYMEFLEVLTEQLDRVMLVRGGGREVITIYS

Chain of KCC2 deletion mutant NTD + TMD fused to GFP (rat) (Q63633 1-640, stated change not applied): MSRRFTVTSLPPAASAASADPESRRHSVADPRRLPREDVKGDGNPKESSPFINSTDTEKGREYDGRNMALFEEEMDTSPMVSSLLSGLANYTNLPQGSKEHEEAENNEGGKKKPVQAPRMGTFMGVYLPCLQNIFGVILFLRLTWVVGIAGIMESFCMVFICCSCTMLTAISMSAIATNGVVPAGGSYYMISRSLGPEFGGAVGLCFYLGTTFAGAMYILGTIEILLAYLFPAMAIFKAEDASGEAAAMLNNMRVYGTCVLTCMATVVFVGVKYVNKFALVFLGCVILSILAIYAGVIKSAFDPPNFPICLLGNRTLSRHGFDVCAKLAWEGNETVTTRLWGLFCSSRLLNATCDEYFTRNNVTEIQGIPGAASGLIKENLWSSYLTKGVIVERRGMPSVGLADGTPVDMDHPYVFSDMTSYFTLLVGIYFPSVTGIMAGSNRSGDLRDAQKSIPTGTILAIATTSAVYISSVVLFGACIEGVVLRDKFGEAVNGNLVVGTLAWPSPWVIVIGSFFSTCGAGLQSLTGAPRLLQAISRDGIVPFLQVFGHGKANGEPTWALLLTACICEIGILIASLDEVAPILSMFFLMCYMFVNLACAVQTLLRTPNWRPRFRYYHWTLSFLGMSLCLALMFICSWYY
Chain of KCC2 transmembrane domain (TMD) fused to GFP (rat) (Q63633 97-640): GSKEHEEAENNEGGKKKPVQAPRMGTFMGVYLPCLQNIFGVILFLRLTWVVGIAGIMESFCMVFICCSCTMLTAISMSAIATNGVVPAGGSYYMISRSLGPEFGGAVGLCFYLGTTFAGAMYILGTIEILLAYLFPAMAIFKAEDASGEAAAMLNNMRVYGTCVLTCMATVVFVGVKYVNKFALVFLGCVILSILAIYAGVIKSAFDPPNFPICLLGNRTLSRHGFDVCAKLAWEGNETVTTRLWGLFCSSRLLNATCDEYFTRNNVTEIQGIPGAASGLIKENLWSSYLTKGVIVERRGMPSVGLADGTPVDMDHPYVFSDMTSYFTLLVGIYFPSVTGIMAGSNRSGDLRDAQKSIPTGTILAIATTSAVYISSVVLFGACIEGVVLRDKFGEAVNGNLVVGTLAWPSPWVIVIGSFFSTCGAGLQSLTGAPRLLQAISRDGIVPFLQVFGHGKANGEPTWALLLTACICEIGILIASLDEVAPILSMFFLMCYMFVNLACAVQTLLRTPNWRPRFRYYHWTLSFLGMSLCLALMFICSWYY

relative amount of GABABR detected after isolation with the GFP antibody (FL-KCC2 = 100%) [1]: 76 % of FL-KCC2 | relative amount of GABABR detected after isolation with the GFP antibody (FL-KCC2 = 100%) [2]: 68 % of FL-KCC2 | relative amount of GABABR detected after isolation with the GFP antibody (FL-KCC2 = 100%) [3]: 36 % of FL-KCC2
Substance: GABAB receptor of rat GABABR1b and GABABR2, stably expressed in CHO cells (from UniProt Q9Z0U4-2 20-960; O88871 41-940) (complex)
